Laboratory results taken from patent US20240117049A1 (Hoffmann-La Roche, published 2024).
Each block holds one binder with its values, some of them ahead of it.

Legend:
[1] = molecular target: T1, human OX40 on cells (human, UniProt P43489 29-277); assay: cell-based or functional assay
T1 sequence: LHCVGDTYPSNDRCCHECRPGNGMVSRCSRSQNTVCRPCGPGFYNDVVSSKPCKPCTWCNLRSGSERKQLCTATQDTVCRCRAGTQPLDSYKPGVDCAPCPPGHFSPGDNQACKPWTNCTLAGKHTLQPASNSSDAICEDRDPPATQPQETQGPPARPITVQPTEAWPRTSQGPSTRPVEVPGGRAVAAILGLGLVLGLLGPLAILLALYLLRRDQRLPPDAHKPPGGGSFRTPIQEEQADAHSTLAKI

[2] = molecular target: T1, human OX40 on cells; assay: cell-based or functional assay; remark: listed apart in the source
[3] = molecular target: T2, human Fibroblast Activation Protein (FAP) expressed on cells (human, UniProt Q12884 1-760); assay: flow cytometry, NIH/3T3-huFAP clone 19 cells
T2 construct: cell surface FAP on transfected HEK cells or NIH/3T3-huFAP clone 19 fibroblasts; also called huFAP; human FAP-transfected HEK cells

[4] = molecular target: T1, human OX40 on cells; assay: flow cytometry, activated human CD4+ T cells
[5] = molecular target: T3, FcRn (biotinylated, coupled to streptavidin-sepharose); assay: FcRn affinity chromatography, pH gradient, retention compared to standards
T3 construct: also called neonatal Fc receptor

[6] = molecular target: T4, biotinylated recombinant human FAP (human, UniProt Q12884 27-760, biotinylated); assay: SPR, stressed against unstressed sample, normalised to anti-hu IgG capture
T4 construct: the Biacore paragraphs only say biotinylated (recombinant) human FAP; also called biotinylated human FAP; recombinant huFAP

[7] = molecular target: T5, biotinylated human OX40 (human, UniProt P43489 29-214, limits assumed, biotinylated); assay: as above
T5 sequence: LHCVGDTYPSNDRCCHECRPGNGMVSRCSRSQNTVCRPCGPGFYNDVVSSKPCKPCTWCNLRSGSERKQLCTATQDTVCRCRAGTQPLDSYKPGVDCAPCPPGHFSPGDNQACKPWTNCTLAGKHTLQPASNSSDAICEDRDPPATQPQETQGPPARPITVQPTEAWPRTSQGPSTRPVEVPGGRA

EC50 of NFκB activation, HeLa_hOx40_NFkB_Luc1, w/ hu FAP+ fibroblasts [1]: 0.31 nM
EC50 of NFκB activation, HeLa_hOx40_NFkB_Luc1, w/o crosslinking [1]: 3.94 nM
AUC of CD25 upregulation compared to reference compound [%] [2]: 100%
EC50 of CD25 upregulation on CD4+ T cells, suboptimal TCR stimulation of human PBMC with FAP+ fibroblasts [2]: 0.02 nM
EC50 [3]: 2.7 nM
EC50 [4]: 0.69 nM
FcRn affinity (relative retention) [5]: -0.22
binding activity [%] after 2 weeks at pH 6.0/40°C [6]: > 90%
binding activity [%] after 2 weeks at pH 7.4/37°C [6]: > 90%
binding activity [%] after 2 weeks at pH 6.0/40°C [7]: > 90%
binding activity [%] after 2 weeks at pH 7.4/37°C [7]: > 90%
B1: P1AE8875 OX40(MOXR0916) x FAP (1G1a) (3 + 1) C-terminal crossfab fusion (bispecific antibody, human IgG1, kappa, L234A L235A)
heavy 1: not shown
heavy 2: EVQLVQSGAEVKKPGASVKVSCKASGYTFTDSYMSWVRQAPGQGLEWIGDMYPDNGDSSYNQKFRERVTITRDTSTSTAYLELSSLRSEDTAVYYCVLAPRWYFSVWGQGTLVTVSSASTKGPSVFPLAPSSKSTSGGTAALGCLVEDYFPEPVTVSWNSGALTSGVHTFPAVLQSSGLYSLSSVVTVPSSSLGTQTYICNVNHKPSNTKVDEKVEPKSCGGGGSGGSGGEVQLVQSGAEVKKPGASVKVSCKASGYTFTDSYMSWVRQAPGQGLEWIGDMYPDNGDSSYNQKFRERVTITRDTSTSTAYLELSSLRSEDTAVYYCVLAPRWYFSVWGQGTLVTVSSASTKGPSVFPLAPSSKSTSGGTAALGCLVEDYFPEPVTVSWNSGALTSGVHTFPAVLQSSGLYSLSSVVTVPSSSLGTQTYICNVNHKPSNTKVDEKVEPKSCDKTHTCPPCPAPEAAGGPSVFLFPPKPKDTLMISRTPEVTCVVVDVSHEDPEVKFNWYVDGVEVHNAKTKPREEQYNSTYRVVSVLTVLHQDWLNGKEYKCKVSNKALGAPIEKTISKAKGQPREPQVCTLPPSRDELTKNQVSLSCAVKGFYPSDIAVEWESNGQPENNYKTTPPVLDSDGSFFLVSKLTVDKSRWQQGNVFSCSVMHEALHNHYTQKSLSLSPG
light 1: not shown
light 2: EIVLTQSPATLSLSPGERATLSCRASESVDNYGLSFINWFQQKPGQAPRLLIYGTSNRGSGIPARFSGSGSGTDFTLTISSLEPEDFAVYFCQQSNEVPYTFGGGTKVEIKSSASTKGPSVFPLAPSSKSTSGGTAALGCLVKDYFPEPVTVSWNSGALTSGVHTFPAVLQSSGLYSLSSVVTVPSSSLGTQTYICNVNHKPSNTKVDKKVEPKSC
notes: also called MOX0916 3+1

EC50 of NFκB activation, HeLa_hOx40_NFkB_Luc1, w/ hu FAP+ fibroblasts [1]: 0.19 nM
AUC of CD25 upregulation compared to reference compound [%] [2]: 106%
EC50 of CD25 upregulation on CD4+ T cells, suboptimal TCR stimulation of human PBMC with FAP+ fibroblasts [2]: 0.01 nM
EC50 [3]: 1.78 nM
EC50 [4]: 0.9 nM
FcRn affinity (relative retention) [5]: 0.15
binding activity [%] after 2 weeks at pH 6.0/40°C [6]: > 90%
binding activity [%] after 2 weeks at pH 7.4/37°C [6]: > 90%
binding activity [%] after 2 weeks at pH 6.0/40°C [7]: > 90%
binding activity [%] after 2 weeks at pH 7.4/37°C [7]: > 90%
B2: P1AE8872 OX40(MOXR0916) x FAP (1G1a) (2 + 1) C-terminal crossfab fusion (bispecific antibody, human IgG1, kappa, L234A L235A)
heavy 1: not shown
heavy 2: EVQLVQSGAEVKKPGASVKVSCKASGYTFTDSYMSWVRQAPGQGLEWIGDMYPDNGDSSYNQKFRERVTITRDTSTSTAYLELSSLRSEDTAVYYCVLAPRWYFSVWGQGTLVTVSSASTKGPSVFPLAPSSKSTSGGTAALGCLVEDYFPEPVTVSWNSGALTSGVHTFPAVLQSSGLYSLSSVVTVPSSSLGTQTYICNVNHKPSNTKVDEKVEPKSCDKTHTCPPCPAPEAAGGPSVFLFPPKPKDTLMISRTPEVTCVVVDVSHEDPEVKFNWYVDGVEVHNAKTKPREEQYNSTYRVVSVLTVLHQDWLNGKEYKCKVSNKALGAPIEKTISKAKGQPREPQVCTLPPSRDELTKNQVSLSCAVKGFYPSDIAVEWESNGQPENNYKTTPPVLDSDGSFFLVSKLTVDKSRWQQGNVFSCSVMHEALHNHYTQKSLSLSPG
light 1: not shown
light 2: B1 light 2
notes: also called MOX0916 2+1
